Common to all, as to type: biochemical
Data set [1] concerns the target alcohol dehydrogenase (KpADH, SEQ ID NO: 1) mutant M63, K36I/T132D/N159D/K210E/T248A/Q272L (Vanderwaltozyma polyspora, UniProt A7TM80, K210E/K36I/N159D/Q272L/T132D/T248A). The experiment in a line: Kinetic parameters in asymmetric reduction of (4-chlorophenyl)-(pyridin-2-yl)-methanone, mutant M63. The settings on record: mutant M63 vs wild-type alcohol dehydrogenase. As to the method: (§1) The detection method of enzyme activity of the alcohol dehydrogenase is as follows:
(§2) A sodium phosphate buffer (PBS, 100 mM, pH 7.0) containing 1 mM NADPH and 1.0 mM substrate prochiral (4-chlorophenyl)-(pyridin-2-yl)-methanone is stood at 30° C. for 2 min, and then 10 μL of a pure enzyme solution is added to the sodium phosphate buffer, and reacted at 30° C. During the reaction, the change in absorbance of the reaction solution at 340 nm is measured on a microplate reader, and used to calculate the enzyme activity.
(§3) The initial reduction activity of wild-type alcohol dehydrogenase and alcohol dehydrogenase mutants M63, M64 and S5 obtained in Example 1 were respectively determined with 0.1-5 mM prochiral diaryl ketone (4-chlorophenyl)-(pyridin-2-yl)-methanone as a substrate. The data was fitted by the nonlinear regression method in Graph Pad Prism 7.0 software, to obtain the Km and Vmax in Michaelis-Menten equation. Then kcat and kcat/Km were calculated.
(§4) kcat is calculated by the formula kcat=Vmax·M/60, where M is the molecular weight of the enzyme, in kDa.

Data set [2] concerns the target alcohol dehydrogenase (KpADH, SEQ ID NO: 1) mutant M64, K36I/T132D/N159D/K210E/T248A/Q272L/Q136N/F161V/S196G/E214G/S237C (Vanderwaltozyma polyspora, UniProt A7TM80, E214G/F161V/K210E/K36I/N159D/Q136N/Q272L/S196G/S237C/T132D/T248A). The data set can be described thus: Kinetic parameters in asymmetric reduction of (4-chlorophenyl)-(pyridin-2-yl)-methanone, mutant M64. How it is done:
as §1, §2, §3, §4

Data set [3] addresses alcohol dehydrogenase (KpADH, SEQ ID NO: 1) mutant S5, Q136N/F161V/S196G/E214G/S237C (Vanderwaltozyma polyspora, UniProt A7TM80, E214G/F161V/Q136N/S196G/S237C). The data set can be described thus: Kinetic parameters in asymmetric reduction of (4-chlorophenyl)-(pyridin-2-yl)-methanone, mutant S5. To be noted: mutant S5 vs wild type, to (S)-alcohol. As to the method: as §1, §2, §3, §4

Data set [4] deals with O=C(c1ccc(Cl)cc1)c1ccccn1. The data set can be described thus: Kinetic parameters in asymmetric reduction of (4-chlorophenyl)-(pyridin-2-yl)-methanone, mutant M63. The settings on record: other: mutant M63; 0.1-5 mM substrate; pH 7.0; 30.0 °C. How it is done: as §1, §2, §3, §4
Data set [5] concerns O=C(c1ccc(Cl)cc1)c1ccccn1. The data set can be described thus: Kinetic parameters in asymmetric reduction of (4-chlorophenyl)-(pyridin-2-yl)-methanone, mutant M64. To be noted: other: mutant M64; 0.1-5 mM substrate; pH 7.0; 30.0 °C. As to the method:
as §1, §2, §3, §4

The test system of data set [6] is O=C(c1ccc(Cl)cc1)c1ccccn1. The experiment in a line: Kinetic parameters in asymmetric reduction of (4-chlorophenyl)-(pyridin-2-yl)-methanone, mutant S5. To be noted: other: mutant S5; 0.1-5 mM substrate; pH 7.0; 30.0 °C. How it is done: as §1, §2, §3, §4
Data set [7] relates to O=C(c1ccc(Cl)cc1)c1ccccn1. The data set can be described thus: Kinetic parameters in asymmetric reduction of (4-chlorophenyl)-(pyridin-2-yl)-methanone, wild type. To be noted: other: wild type; 0.1-5 mM substrate; pH 7.0; 30.0 °C. As to the method:
as §1, §2, §3, §4

The results in this text go back to patent US11542479B2, “Alcohol dehydrogenase mutant and use thereof” (priority 2019, dated 2023).

As a reminder, the Km is the substrate concentration at which the rate is half of its maximum. As a reminder, the Vmax is the top rate of the reaction or transport when substrate is in excess. A word on the kcat: it is the number of substrate molecules converted per active site and unit of time at saturation. The term kcat/Km denotes the turnover number divided by the Michaelis constant.

Regarding `O=C(c1ccc(Cl)cc1)c1ccccn1` [(4-chlorophenyl)-(pyridin-2-yl)-methanone], the “catalytic efficiency relative to wild type” value in data set [1] is 1.3 times. Besides, the “catalytic efficiency relative to mutant S5” value in data set [2] (mutant M64 vs mutant S5) is listed as 1.35 times. The “catalytic efficiency compared with wild type” value is given as “close to that of the wild type” in data set [2] (mutant M64 vs wild type, to (S)-alcohol) and “decreased compared with the wild type” in data set [3].
Regarding “alcohol dehydrogenase (KpADH, SEQ ID NO: 1) mutant M63, K36I/T132D/N159D/K210E/T248A/Q272L (Vanderwaltozyma polyspora DSM 70294; K210E/K36I/N159D/Q272L/T132D/T248A)”, in data set [4], the Km stood at 830 ± 200 µM, the Vmax was 32.8 µmol/min/mg, the turnover number (kcat) is 22.8 ± 2.14 s⁻¹ and the kcat/Km worked out at 27500 M⁻¹ s⁻¹.
Consider “alcohol dehydrogenase (KpADH, SEQ ID NO: 1) mutant M64, K36I/T132D/N159D/K210E/T248A/Q272L/Q136N/F161V/S196G/E214G/S237C (Vanderwaltozyma polyspora DSM 70294; E214G/F161V/K210E/K36I/N159D/Q136N/Q272L/S196G/S237C/T132D/T248A)”, for which, in data set [5], the Michaelis constant (Km) stood at 860 ± 140 µM, the Vmax is 25.1 µmol/min/mg, the kcat amounted to 17.4 ± 1.1 s⁻¹ and the kcat/Km was 20300 M⁻¹ s⁻¹.
For “alcohol dehydrogenase (KpADH, SEQ ID NO: 1) mutant S5, Q136N/F161V/S196G/E214G/S237C (Vanderwaltozyma polyspora DSM 70294; E214G/F161V/Q136N/S196G/S237C)”, in data set [6], the Michaelis constant (Km) was found to be 1090 ± 100 µM, the Vmax came to 24.4 µmol/min/mg, the kcat stood at 16.1 ± 1.7 s⁻¹ and the kcat/Km is 14800 M⁻¹ s⁻¹.
In the case of “wild-type alcohol dehydrogenase (KpADH), SEQ ID NO: 1 (Vanderwaltozyma polyspora DSM 70294)”, in data set [7], the Km stood at 950 ± 100 µM, the Vmax turned out to be 31.8 µmol/min/mg, the kcat was determined as 20.1 ± 1 s⁻¹ and the kcat/Km is 21200 M⁻¹ s⁻¹.
